Publication PMC5531466, “Biochemical characterization of a new nicotinamidase from an unclassified bacterium thriving in a geothermal water stream microbial mat community” (PLoS ONE, 2017)

Assays:
[1] = system: NC(=O)c1cnccn1; assay: purified protein; settings: Fe2+ active site
[2] = system: CCOC(=O)c1cccnc1; assay: purified protein; settings: Fe2+ active site; C155 thiolate attack at C7 of ethylnicotinate
[3] = system: COC(=O)c1cccnc1; assay: purified protein; settings: Fe2+ active site
[4] = system: Cc1cncc(C(N)=O)c1; assay: purified protein; settings: Fe2+ active site
[5] = molecular target: T1, (UniProt H5SPS2); assay: HPLC nicotinamidase assay, Morrison equation; also thermal shift (Tm […] °C); type: biochemical
T1 construct: full-length, N-terminal 6-histidine tag (pET28a)
T1 sequence (H5SPS2 1-220): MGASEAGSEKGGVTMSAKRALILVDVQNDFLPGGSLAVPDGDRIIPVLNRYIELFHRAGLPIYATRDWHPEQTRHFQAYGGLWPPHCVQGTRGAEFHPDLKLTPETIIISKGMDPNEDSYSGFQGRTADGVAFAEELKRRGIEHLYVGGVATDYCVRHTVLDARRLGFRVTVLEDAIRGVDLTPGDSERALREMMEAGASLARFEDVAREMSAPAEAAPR

| Molecule | Km [1] [mM] | kcat [1] [s⁻¹] | kcat/Km [1] [M⁻¹ s⁻¹] | Km [2] [mM] | kcat [2] [s⁻¹] | kcat/Km [2] [M⁻¹ s⁻¹] | Km [3] [mM] | kcat [3] [s⁻¹] | kcat/Km [3] [M⁻¹ s⁻¹] | Km [4] [mM] | kcat [4] [s⁻¹] | kcat/Km [4] [M⁻¹ s⁻¹] | Ki [5] [nM] |
| --- | --- | --- | --- | --- | --- | --- | --- | --- | --- | --- | --- | --- | --- |
| UbNic (nicotinamidase) (uncultured Acidobacteriota bacterium) | 0.33 ± 0.05 | 18.7 ± 0.3 | 56700 | 1.31 ± 0.03 | 3.7 ± 0.3 | 2800 | 1.08 ± 0.11 | 54.5 ± 0.8 | 50500 | 1.09 ± 0.20 | 43.7 ± 0.3 | 40100 |  |
| O=Cc1cccnc1 [nicotinaldehyde] |  |  |  |  |  |  |  |  |  |  |  |  | 180 ± 1 |
